± gives the uncertainty stated by the source.

This data set can be described thus: amyloid nucleation score (Sup35N fusion, yeast selection) (log enrichment); library NNK3; higher = more nucleation; inactive = no reads after selection. The essentials: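 After 24 hours of induction with 100 μM copper sulfate, psi-negative yeast expressing peptides of 20 random codons fused to Sup35N were grown for 7 days at 30°C on medium lacking adenine and uracil. Input and output plasmid inserts were sequenced with Illumina, and sequences with under 100 input reads were discarded. Scores for nucleation are the DiMSum log enrichment of output over input reads, centred on the mode score of non-aggregating sequences.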
For the substance LLWEWYFI, the amyloid nucleation score result was “inactive”.

In the case of LLWSCCRGRMYDNMFHGKVK, the amyloid nucleation score result was “inactive”.

As for LLYETLLIIMCGKCLQFYIV, the amyloid nucleation score entry was “inactive”.

Regarding LMFDVFLMSTFVFDNL, the amyloid nucleation score entry is “inactive”.

Regarding LMGLCTLI, the amyloid nucleation score entry was “inactive”.

For LMLNGHAVHMSSNSEALVIC, the amyloid nucleation score result was “inactive”.

On to LMSVLRFQTP, for which the amyloid nucleation score entry is “inactive”.

In the case of LMVSREFWCSLSKV, the amyloid nucleation score entry is “inactive”.

In the case of LNCLRMSLLC, the amyloid nucleation score entry is “inactive”.

LNCQYTFHAKCSFLHPSLL: the amyloid nucleation score worked out at 0.928 ± 0.21.

Take LNFTCEVGGVYEVDVNSCLL: the amyloid nucleation score result was “inactive”.

Consider LNHRIWLTLFGSASRLVKFD, for which the amyloid nucleation score result is “inactive”.

In the case of LNIIVDGLAMDVYDEALGSN, the amyloid nucleation score result is “inactive”.

On to LNIQFFINLALAEGFLYNRK, for which the amyloid nucleation score was determined as 2.97 ± 0.084.

For the substance LNKLTKIVVSHKGLCFELGG, the amyloid nucleation score entry is “inactive”.

With LNLGIFV, the amyloid nucleation score result is “inactive”.

Regarding LNLQNVVYGTMSEHSASSVD, the amyloid nucleation score result was “inactive”.

LNQLGSCY returned an amyloid nucleation score of -0.019 ± 1.1.

As to LNQSDRCKVCWYWLGHT, the amyloid nucleation score result was “inactive”.

On to LNQYLYFVRDMGDVMFCLYF, for which the amyloid nucleation score entry was “inactive”.

LNRVRSS registered an amyloid nucleation score of -0.108 ± 0.7.

In turn, LNSDIVVNLNIAWSYCIV showed an amyloid nucleation score of 1.39 ± 0.068.

Consider LNSGIS, for which the amyloid nucleation score worked out at 0.103 ± 0.24.

In the case of LNSTVSGKFMLL, the amyloid nucleation score turned out to be 0.078 ± 0.66.

LNTYQHFCIFMLSYALLSGH registered an amyloid nucleation score of -1.49 ± 2.5.

For the substance LNYGSDLDSIYYSFTL, the amyloid nucleation score is -0.896 ± 0.96.

Substance LNYTEASYSLTGHTISISTV displayed an amyloid nucleation score of -0.156 ± 1.5.

Regarding LPAHTL, the amyloid nucleation score entry was “inactive”.

LPAWKKTAFYFRYHGPFVRS: the amyloid nucleation score entry is “inactive”.

On to LPKCQLLLRRCRV, for which the amyloid nucleation score entry was “inactive”.

As to LPSVDVRKTI, the amyloid nucleation score result is “inactive”.

LPTIQILRQNTVPIGVHHKF: the amyloid nucleation score result is “inactive”.

For the substance LQDMPGNGFPVWVDISFSSY, the amyloid nucleation score entry was “inactive”.

As to LQGVFRMSQISG, the amyloid nucleation score result is “inactive”.

Turning to LQMYWIIV, the amyloid nucleation score entry was “inactive”.

Consider LQNVGD, for which the amyloid nucleation score result was “inactive”.

For LQRYRPADMRVGASSSGNTK, the amyloid nucleation score was found to be 0.121 ± 1.

Take LQSCKATPRLCFEATLGRGV: the amyloid nucleation score is -0.992 ± 2.5.

Turning to LQSEPVLSDTSMSGVVASYF, the amyloid nucleation score entry was “inactive”.

Consider LQYYLRPRFNLRLYGAIPPA, for which the amyloid nucleation score entry was “inactive”.

As for LRCTVRSLAKFVFYRFKTGG, the amyloid nucleation score result was “inactive”.

On to LRFAYTFFWYVRFRVRICFN, for which the amyloid nucleation score entry was “inactive”.

Consider LRFMRSI, for which the amyloid nucleation score entry was “inactive”.

In the case of LRFRAQNTYEGPYTVGPVWS, the amyloid nucleation score result is “inactive”.

LRFRLNSRVYTTHNIKVPSL: the amyloid nucleation score entry is “inactive”.

Consider LRGDGLMIVIVVWCIYGYLC, for which the amyloid nucleation score entry is “inactive”.

On to LRGFMISSWDFFADGSDVRL, for which the amyloid nucleation score entry was “inactive”.

In the case of LRGNECRPGVELPVTVSKFR, the amyloid nucleation score result is “inactive”.

For the substance LRGYLHWLCSECSVLVSAVA, the amyloid nucleation score entry is “inactive”.

Take LRHGSSEFNYGNFFLCLFEQ: the amyloid nucleation score came out at 2.56 ± 0.075.

As for LRKGVRLLFSHHVIIK, the amyloid nucleation score result is “inactive”.

For LRLNKLCEVFAPLTSVLAGT, the amyloid nucleation score result was “inactive”.

Turning to LRLQIEKTAKNMFEYKAG, the amyloid nucleation score result is “inactive”.

With LRLVGLLMGNIFFELYGDLC, the amyloid nucleation score result is “inactive”.

On to LRNSHGDDNVIRLVNNCNSV, for which the amyloid nucleation score result is “inactive”.

Take LRPRYSAYILQSRR: the amyloid nucleation score entry is “inactive”.

Consider LRQNTYMLLSGNIVCRIVSF, for which the amyloid nucleation score result was “inactive”.

With LRRLELIGLECNLTGSRAVP, the amyloid nucleation score result was “inactive”.

LRRMDQMANDLFAI: the amyloid nucleation score entry was “inactive”.

In the case of LRRQTSHKS, the amyloid nucleation score result was “inactive”.

In the case of LRSLLNQVMSYSMYILYNSQ, the amyloid nucleation score entry is “inactive”.

LRSVFSRYFGQVHEFSRQRY: the amyloid nucleation score entry is “inactive”.

In the case of LRWFFVHPQWIRGCGLAMLS, the amyloid nucleation score result is “inactive”.

For LRYNRDVTS, the amyloid nucleation score entry was “inactive”.

For the substance LSAAFYDMETIGWISGSWVN, the amyloid nucleation score result was “inactive”.

For the substance LSCHETCLVISGLCMLMMRL, the amyloid nucleation score entry is “inactive”.

LSEMANDHEHVYSYRKAHYM returned an amyloid nucleation score of -0.626 ± 0.8.

LSEWMSESGNFEFCVASLYR: the amyloid nucleation score result was “inactive”.

LSFFGSYSSSRLF displayed an amyloid nucleation score of 1.43 ± 0.11.

Consider LSGPMRYELCMRLGSGLNYE, for which the amyloid nucleation score result was “inactive”.

Turning to LSGSLTTISIITGGVDCD, the amyloid nucleation score result was “inactive”.

Regarding LSGSRTRSRFPDCLNCIS, the amyloid nucleation score entry was “inactive”.

For LSKFFRWV, the amyloid nucleation score result is “inactive”.

LSKHEAGTCRLVNDRTHYKA: the amyloid nucleation score entry was “inactive”.

For the substance LSLCRNKSIKWVFSLMEIL, the amyloid nucleation score result is “inactive”.

Consider LSLKNFMSSFSSLWCGWSDD, for which the amyloid nucleation score is 0.689 ± 0.29.

As to LSLWMGVEDFVLCGSVNTSR, the amyloid nucleation score entry was “inactive”.

With LSMCAVFDRYLWVGSGDITY, the amyloid nucleation score entry was “inactive”.

LSMTGV: the amyloid nucleation score entry was “inactive”.

With LSNDYCLRWVFMFKVMIRCD, the amyloid nucleation score entry is “inactive”.

Turning to LSNIICSCQLCWACPSLSVM, the amyloid nucleation score was 2.47 ± 0.057.

With LSNLRGYNH, the amyloid nucleation score entry is “inactive”.

As for LSPWVSMILVKFKLHLYLRR, the amyloid nucleation score result was “inactive”.

Consider LSSLYLCCYACPNMLLI, for which the amyloid nucleation score came to 1.58 ± 0.11.

On to LSSSGIMFCFFVDGLRSLV, for which the amyloid nucleation score entry is “inactive”.

With LSTIIHDFIGCCAVNAQLIG, the amyloid nucleation score result was “inactive”.

Substance LSTQNRISASREMMDTDILG gave an amyloid nucleation score of 0.8 ± 0.13.

For LSYGFLGDRYVLHGCLMYFP, the amyloid nucleation score result is “inactive”.

In the case of LSYGRGVTVLYVLWSYFISR, the amyloid nucleation score result was “inactive”.

On to LSYQDVWGSYGICEGSVWYS, for which the amyloid nucleation score result was “inactive”.

LTAVLLTPYSLFGFALWWFV showed an amyloid nucleation score of -0.487 ± 1.4.

Consider LTEMVLPLVHHLKTWSFVQE, for which the amyloid nucleation score entry is “inactive”.

For the substance LTFCVSMKCKIW, the amyloid nucleation score entry was “inactive”.

In the case of LTINDLCGFVKWLRTNCNVS, the amyloid nucleation score result is “inactive”.

As for LTLITPPTRS, the amyloid nucleation score entry was “inactive”.

For the substance LTMVWDNIAMYMHWHMTTPI, the amyloid nucleation score result is “inactive”.

Regarding LTNCRHSWWEDTTYSMWEVQ, the amyloid nucleation score result is “inactive”.

LTRFRDIRFLINKNGACKEW came in with an amyloid nucleation score of -0.213 ± 0.71.

As to LTSSEQDAITLTTCGISECA, the amyloid nucleation score entry is “inactive”.

Take LTTICS: the amyloid nucleation score result is “inactive”.

Take LVADSDRMNVTLRFTVSYCS: the amyloid nucleation score entry was “inactive”.

In the case of LVCFARVRKMEAEAFMKLVW, the amyloid nucleation score worked out at 0.64 ± 0.26.

LVDLSRSISKSPMQKYRF: the amyloid nucleation score entry is “inactive”.

As to LVEIVLYWSRVWYWTRGSNV, the amyloid nucleation score entry was “inactive”.

LVEVDDASNIDCEAAYCKWY: the amyloid nucleation score entry was “inactive”.

Turning to LVFGLLLS, the amyloid nucleation score result is “inactive”.

Consider LVFRIN, for which the amyloid nucleation score result was “inactive”.

With LVFSNFYGYFRASC, the amyloid nucleation score entry was “inactive”.

In turn, LVFYMFAFITFVIYMMLIFY displayed an amyloid nucleation score of 0.163 ± 0.29.

LVICKNINKLISWLSDYSFA: the amyloid nucleation score result is “inactive”.

For LVIWYLQSLYSPGINCQDLR, the amyloid nucleation score result is “inactive”.

With LVLAVVMTFRLRIRLSNLSR, the amyloid nucleation score result was “inactive”.

LVLSVWKLKLSGLALIFWYG: the amyloid nucleation score entry is “inactive”.

For the substance LVNGTFNFSDHAESESCSHS, the amyloid nucleation score result is “inactive”.

Turning to LVNLCRIRRVLECVRRRHRS, the amyloid nucleation score result was “inactive”.

Take LVRCSNTR: the amyloid nucleation score result was “inactive”.

Take LVRVGSSNYLVNQIRPNISA: the amyloid nucleation score entry is “inactive”.

Consider LVSEPFQMRSTGGIGLIAVY, for which the amyloid nucleation score result was “inactive”.

Consider LVSVGSDWDCLHFISGKFPG, for which the amyloid nucleation score entry was “inactive”.

Consider LVSWSIA, for which the amyloid nucleation score entry is “inactive”.

In the case of LVTFCYLDGSILNGEALRG, the amyloid nucleation score result is “inactive”.

In the case of LVVCKLRV, the amyloid nucleation score result was “inactive”.

As to LVVTTPLRRGKDLDSMRYTC, the amyloid nucleation score result is “inactive”.

Take LVVVR: the amyloid nucleation score result is “inactive”.

Take LVYFFFRVYNGPRMGS: the amyloid nucleation score entry was “inactive”.

As for LVYNLNRKRGCKGVPVLRYS, the amyloid nucleation score entry is “inactive”.

Turning to LVYVLDCRAKLTNYLISTLY, the amyloid nucleation score entry was “inactive”.

For the substance LWANNGSCFMCEYSHDGGKN, the amyloid nucleation score result is “inactive”.

As to LWASTVGVFVGRRSPYLMCW, the amyloid nucleation score entry was “inactive”.

With LWCCEYRNRAATMRVPDPEL, the amyloid nucleation score entry was “inactive”.

These data come from the supplement of paper PMC12042874.
